Assay results as given in the supplement of paper PMC10567573.

B1: C20orf112 (parent)
chain: YANGGLNYSYRGYGALSSNLQPPA

Variants of: B1
Experiment: protein stability index of a GFP-peptide fusion (GPS, HEK-293T) (PSI 1-6); higher = more stable
Conditions: c terminus: a fixed tail appended
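Note: lentivirally expressed fusions sorted by FACS into six bins by GFP to DsRed ratio, PSI derived from sequencing read proportions per bin multiplied by bin number.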

| Variant | protein stability index |
| --- | --- |
| YANGGLNYSYRGYGALSSNLQPPR [A24R] | 2.48 |
| YANGGLNYSYRGYGALSSNLQPPS [A24S] | 1.82 |
| YANGGLNYSYRGYGALSSNLQPPT [A24T] | 2.52 |
| YANGGLNYSYRGYGALSSNLQPPD [A24D] | 1.86 |
| YANGGLNYSYRGYGALSSNLQPPE [A24E] | 1.95 |
| YANGGLNYSYRGYGALSSNLQPPH [A24H] | 2.19 |
| YANGGLNYSYRGYGALSSNLQPPK [A24K] | 2 |
| YANGGLNYSYRGYGALSSNLQPPM [A24M] | 1.35 |
| YANGGLNYSYRGYGALSSNLQPPW [A24W] | 1.86 |
| YANGGLNYSYRGYGALSSNLQPPN [A24N] | 1.9 |
| YANGGLNYSYRGYGALSSNLQPPC [A24C] | 2.37 |
| YANGGLNYSYRGYGALSSNLQPPP [A24P] | 2.73 |
| YANGGLNYSYRGYGALSSNLQPPI [A24I] | 2.43 |
| YANGGLNYSYRGYGALSSNLQPPL [A24L] | 1.62 |
| YANGGLNYSYRGYGALSSNLQPPY [A24Y] | 1.75 |
| YANGGLNYSYRGYGALSSNLQPPQ [A24Q] | 2.27 |
| YANGGLNYSYRGYGALSSNLQPPV [A24V] | 2.23 |
| YANGGLNYSYRGYGALSSNLQPPG [A24G] | 3.04 |
| YANGGLNYSYRGYGALSSSLQPPA [N19S] | 2.44 |
| YANGGLNYSYRGYGALSSKLQPPA [N19K] | 2.96 |
| YANGGLNYSYRGYGALSSMLQPPA [N19M] | 1.88 |
| YANGGLNYSYRGYGALSSHLQPPA [N19H] | 1.43 |
| YANGGLNYSYRGYGALSSELQPPA [N19E] | 1.11 |
| YANGGLNYSYRGYGALSSVLQPPA [N19V] | 1.99 |

| Variant | protein stability index |
| --- | --- |
| YANGGLNYSYRGYGALSSQLQPPA [N19Q] | 2.14 |
| YANGGLNYSYRGYGALSSILQPPA [N19I] | 1.71 |
| YANGGLNYSYRGYGALSSLLQPPA [N19L] | 2.53 |
| YANGGLNYSYRGYGALSSALQPPA [N19A] | 1.71 |
| YANGGLNYSYRGYGALSSYLQPPA [N19Y] | 1.57 |
| YANGGLNYSYRGYGALSSTLQPPA [N19T] | 1.91 |
| YANGGLNYSYRGYGALSSPLQPPA [N19P] | 2.18 |
| YANGGLNYSYRGYGALSSGLQPPA [N19G] | 1.42 |
| YANGGLNYSYRGYGALSSFLQPPA [N19F] | 1.53 |
| YANGGLNYSYRGYGALSSRLQPPA [N19R] | 1.99 |
| YANGGLNYSYRGYGALSSCLQPPA [N19C] | 2.05 |
| YANGGLNYSYRGYGALSSDLQPPA [N19D] | 2.15 |
| YANGGLNYSYRGYGALSSWLQPPA [N19W] | 2.61 |
| YANGGLNYSYRGYGALSSNVQPPA [L20V] | 1.84 |
| YANGGLNYSYRGYGALSSNCQPPA [L20C] | 2.7 |
| YANGGLNYSYRGYGALSSNEQPPA [L20E] | 1.37 |
| YANGGLNYSYRGYGALSSNIQPPA [L20I] | 2.54 |
| YANGGLNYSYRGYGALSSNKQPPA [L20K] | 2.27 |
| YANGGLNYSYRGYGALSSNQQPPA [L20Q] | 1.71 |
| YANGGLNYSYRGYGALSSNMQPPA [L20M] | 1.52 |
| YANGGLNYSYRGYGALSSNYQPPA [L20Y] | 1.34 |
| YANGGLNYSYRGYGALSSNAQPPA [L20A] | 1.79 |
| YANGGLNYSYRGYGALSSNTQPPA [L20T] | 1.55 |
| YANGGLNYSYRGYGALSSNRQPPA [L20R] | 1.73 |

| Variant | protein stability index |
| --- | --- |
| YANGGLNYSYRGYGALSSNSQPPA [L20S] | 2.34 |
| YANGGLNYSYRGYGALSSNDQPPA [L20D] | 1.36 |
| YANGGLNYSYRGYGALSSNPQPPA [L20P] | 1.88 |
| YANGGLNYSYRGYGALSSNHQPPA [L20H] | 1.69 |
| YANGGLNYSYRGYGALSSNWQPPA [L20W] | 1.84 |
| YANGGLNYSYRGYGALSSNFQPPA [L20F] | 1.55 |
| YANGGLNYSYRGYGALSSNGQPPA [L20G] | 2.28 |
| YANGGLNYSYRGYGALSSNNQPPA [L20N] | 2.11 |
| YANGGLNYSYRGYGALSCNLQPPA [S18C] | 2.17 |
| YANGGLNYSYRGYGALSDNLQPPA [S18D] | 1.42 |
| YANGGLNYSYRGYGALSWNLQPPA [S18W] | 2.07 |
| YANGGLNYSYRGYGALSPNLQPPA [S18P] | 2.2 |
| YANGGLNYSYRGYGALSVNLQPPA [S18V] | 1.73 |
| YANGGLNYSYRGYGALSLNLQPPA [S18L] | 1.85 |
| YANGGLNYSYRGYGALSMNLQPPA [S18M] | 2.06 |
| YANGGLNYSYRGYGALSYNLQPPA [S18Y] | 1.67 |
| YANGGLNYSYRGYGALSINLQPPA [S18I] | 1.78 |
| YANGGLNYSYRGYGALSKNLQPPA [S18K] | 1.61 |
| YANGGLNYSYRGYGALSQNLQPPA [S18Q] | 2.6 |
| YANGGLNYSYRGYGALSGNLQPPA [S18G] | 1.58 |
| YANGGLNYSYRGYGALSANLQPPA [S18A] | 2.15 |
| YANGGLNYSYRGYGALSTNLQPPA [S18T] | 2.05 |
| YANGGLNYSYRGYGALSNNLQPPA [S18N] | 1.57 |
| YANGGLNYSYRGYGALSHNLQPPA [S18H] | 1.8 |

| Variant | protein stability index |
| --- | --- |
| YANGGLNYSYRGYGALSFNLQPPA [S18F] | 1.72 |
| YANGGLNYSYRGYGALSRNLQPPA [S18R] | 2.21 |
| YANGGLNYSYRGYGALSENLQPPA [S18E] | 1.56 |
| YANGGLNYSYRGYGALPSNLQPPA [S17P] | 1.9 |
| YANGGLNYSYRGYGALQSNLQPPA [S17Q] | 1.55 |
| YANGGLNYSYRGYGALISNLQPPA [S17I] | 3.55 |
| YANGGLNYSYRGYGALESNLQPPA [S17E] | 2.23 |
| YANGGLNYSYRGYGALMSNLQPPA [S17M] | 2.17 |
| YANGGLNYSYRGYGALHSNLQPPA [S17H] | 1.9 |
| YANGGLNYSYRGYGALTSNLQPPA [S17T] | 2.15 |
| YANGGLNYSYRGYGALWSNLQPPA [S17W] | 1.85 |
| YANGGLNYSYRGYGALNSNLQPPA [S17N] | 1.88 |
| YANGGLNYSYRGYGALDSNLQPPA [S17D] | 1.87 |
| YANGGLNYSYRGYGALKSNLQPPA [S17K] | 1.94 |
| YANGGLNYSYRGYGALLSNLQPPA [S17L] | 1.39 |
| YANGGLNYSYRGYGALCSNLQPPA [S17C] | 2.2 |
| YANGGLNYSYRGYGALYSNLQPPA [S17Y] | 2.53 |
| YANGGLNYSYRGYGALFSNLQPPA [S17F] | 2.49 |
| YANGGLNYSYRGYGALGSNLQPPA [S17G] | 3.12 |
| YANGGLNYSYRGYGALRSNLQPPA [S17R] | 2.56 |
| YANGGLNYSYRGYGALASNLQPPA [S17A] | 1.58 |
| YANGGLNYSYRGYGALVSNLQPPA [S17V] | 2.33 |
